This is an account of results in PMC4511217 (Genes & Development, 2015).

The labels stand for the following.
B1: Rpf2 within Alb1-TAP purified pre-60S particles (natural protein)
chain: MIRTVKPKNARAKRALVKREAKLVENVKQALFIPGQSCNKNLHDIMVDLSALKKPDMKRFNRKNDIHPFEDMSPLEFFSEKNDCSLMVLMTSSKKRKNNMTFIRTFGYKIYDMIELMVADNFKLLSDFKKLTFTVGLKPMFTFQGAAFDTHPVYKQIKSLFLDFFRGESTDLQDVAGLQHVISMTIQGDFQDGEPLPNVLFRVYKLKSYKSDQGGKRLPRIELVEIGPRLDFKIGRIHTPSPDMVTEAHKKPKQLEMKTKKNVELDIMGDKLGRIHMGKQDLGKLQTRKMKGLKSKFDQGTEEGDGEVDEDYEDEASYSDDGQEYEEEFVSATDIEPSAKRQKK
B4: Rpl5 (uL18) within Alb1-TAP purified pre-60S particles (natural protein)
chain: MAFQKDAKSSAYSSRFQTPFRRRREGKTDYYQRKRLVTQHKAKYNTPKYRLVVRFTNKDIICQIISSTITGDVVLAAAYSHELPRYGITHGLTNWAAAYATGLLIARRTLQKLGLDETYKGVEEVEGEYELTEAVEDGPRPFKVFLDIGLQRTTTGARVFGALKGASDGGLYVPHSENRFPGWDFETEEIDPELLRSYIFGGHVSQYMEELADDDEERFSELFKGYLADDIDADSLEDIYTSAHEAIRADPAFKPTEKKFTKEQYAAESKKYRQTKLSKEERAARVAAKIAALAGQQ

Assay [1] addresses T1, Rsa4 ribosome assembly factor within Alb1-TAP purified pre-60S particles (yeast (endogenous in pre-60S particles), UniProt P25382 1-515).
T1 sequence: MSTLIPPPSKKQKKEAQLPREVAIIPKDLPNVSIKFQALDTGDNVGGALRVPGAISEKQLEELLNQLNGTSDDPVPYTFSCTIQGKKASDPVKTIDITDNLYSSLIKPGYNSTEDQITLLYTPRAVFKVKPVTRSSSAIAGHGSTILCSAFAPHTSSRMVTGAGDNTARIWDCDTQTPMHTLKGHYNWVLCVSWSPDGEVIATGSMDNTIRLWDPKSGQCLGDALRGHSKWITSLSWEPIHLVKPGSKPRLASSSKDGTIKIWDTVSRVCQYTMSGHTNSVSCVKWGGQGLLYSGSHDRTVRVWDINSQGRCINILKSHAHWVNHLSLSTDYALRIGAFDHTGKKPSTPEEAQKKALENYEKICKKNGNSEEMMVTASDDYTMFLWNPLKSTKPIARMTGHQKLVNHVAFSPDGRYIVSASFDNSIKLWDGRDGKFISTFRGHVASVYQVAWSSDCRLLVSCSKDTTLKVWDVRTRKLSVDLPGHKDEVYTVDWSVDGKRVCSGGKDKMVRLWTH
In words: cryo-EM structure.

The target of assay [2] is T2, Rpf2, full-length, N-terminal 6xHis-tagged (Saccharomyces cerevisiae) (Saccharomyces cerevisiae, UniProt P36160 1-344).
T2 sequence: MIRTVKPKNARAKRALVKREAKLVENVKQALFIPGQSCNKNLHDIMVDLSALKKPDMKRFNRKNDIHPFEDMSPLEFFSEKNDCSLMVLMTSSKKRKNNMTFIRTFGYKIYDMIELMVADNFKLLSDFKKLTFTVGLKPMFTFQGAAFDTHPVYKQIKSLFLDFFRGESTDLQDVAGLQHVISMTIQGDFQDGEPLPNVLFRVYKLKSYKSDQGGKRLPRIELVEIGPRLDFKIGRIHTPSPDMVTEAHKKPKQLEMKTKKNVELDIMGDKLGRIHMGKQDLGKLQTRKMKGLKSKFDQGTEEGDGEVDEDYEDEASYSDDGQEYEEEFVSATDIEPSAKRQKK
Description: SEC + other: SAXS.

The target in assay [3] is B4. Description: cryo-EM structure.
The target in assay [4] is B1. In words: cryo-EM structure.

In the case of B1, the binding result in assay [1] is reported as “binds”.

B2: Rrs1, full-length (Saccharomyces cerevisiae) (natural protein)
chain: MSAEDYKNLPVTVEKPIPVVYDLGNLAAFDSNVLDKNDLDSSNARREEKIKSLTRDNVQLLINQLLSLPMKTTTESVGGTGGQSSVMTLLQLPDPTTDLPREKPLPKAKAMTKWEKFAAKKGIKPKERAGKMIYDEASGEWVPKWGYKGANKKLDDQWLVEVDDKVKGTDNELIDPRTLNRAERKRLVKKNEKQQRRNMKNAL
One may read the stoichiometry N as the number of molecules, sites or subunits per partner or assembly. Turning to B2, in assay [2], the “stoichiometry N” value is 1.

B3: Rrs1 within Alb1-TAP purified pre-60S particles (natural protein)
chain: MSAEDYKNLPVTVEKPIPVVYDLGNLAAFDSNVLDKNDLDSSNARREEKIKSLTRDNVQLLINQLLSLPMKTTTESVGGTGGQSSVMTLLQLPDPTTDLPREKPLPKAKAMTKWEKFAAKKGIKPKERAGKMIYDEASGEWVPKWGYKGANKKLDDQWLVEVDDKVKGTDNELIDPRTLNRAERKRLVKKNEKQQRRNMKNAL
In the case of B3, the binding result in assay [3] and in assay [1] was “binds” throughout.

Take B4: in assay [4], the binding result is recorded as “binds”.
